Numbering of substitutions follows the chain as printed.
Experiments:
[1] = target: T1, homologous sequence of gB glycoprotein of 56 virus strains (gB_Con. Strain) (human cytomegalovirus (homologous …, UniProt P06473 25-699)); test: ELISA, HEK293 culture supernatant on gB
T1 construct: C-terminal tags are part of the entry
T1 chain: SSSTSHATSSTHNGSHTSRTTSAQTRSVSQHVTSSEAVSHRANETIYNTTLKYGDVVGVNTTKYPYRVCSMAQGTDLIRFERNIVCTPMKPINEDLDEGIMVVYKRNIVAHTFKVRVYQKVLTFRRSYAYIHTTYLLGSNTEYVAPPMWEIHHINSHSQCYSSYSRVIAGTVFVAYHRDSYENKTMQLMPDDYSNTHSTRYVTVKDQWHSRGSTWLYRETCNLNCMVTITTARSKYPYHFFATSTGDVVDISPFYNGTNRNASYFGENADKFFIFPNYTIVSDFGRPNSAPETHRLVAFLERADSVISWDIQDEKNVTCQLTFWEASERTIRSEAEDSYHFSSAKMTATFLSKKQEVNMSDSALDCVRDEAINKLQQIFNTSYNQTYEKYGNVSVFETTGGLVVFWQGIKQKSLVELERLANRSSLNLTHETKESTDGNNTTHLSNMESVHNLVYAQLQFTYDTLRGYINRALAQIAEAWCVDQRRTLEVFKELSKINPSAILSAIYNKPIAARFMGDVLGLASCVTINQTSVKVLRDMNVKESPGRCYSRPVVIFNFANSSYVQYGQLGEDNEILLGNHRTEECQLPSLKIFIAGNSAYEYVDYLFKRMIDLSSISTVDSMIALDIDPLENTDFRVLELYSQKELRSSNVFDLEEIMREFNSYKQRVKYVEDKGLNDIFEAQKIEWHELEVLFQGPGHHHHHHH

[2] = target: T2, gB_Towne protein with N409 mutated into glutamine (human cytomegalovirus, strain Towne, UniProt F5HB53 25-700); test: indirect ELISA, antibody titrated on gB glycoprotein mutant
T2 chain: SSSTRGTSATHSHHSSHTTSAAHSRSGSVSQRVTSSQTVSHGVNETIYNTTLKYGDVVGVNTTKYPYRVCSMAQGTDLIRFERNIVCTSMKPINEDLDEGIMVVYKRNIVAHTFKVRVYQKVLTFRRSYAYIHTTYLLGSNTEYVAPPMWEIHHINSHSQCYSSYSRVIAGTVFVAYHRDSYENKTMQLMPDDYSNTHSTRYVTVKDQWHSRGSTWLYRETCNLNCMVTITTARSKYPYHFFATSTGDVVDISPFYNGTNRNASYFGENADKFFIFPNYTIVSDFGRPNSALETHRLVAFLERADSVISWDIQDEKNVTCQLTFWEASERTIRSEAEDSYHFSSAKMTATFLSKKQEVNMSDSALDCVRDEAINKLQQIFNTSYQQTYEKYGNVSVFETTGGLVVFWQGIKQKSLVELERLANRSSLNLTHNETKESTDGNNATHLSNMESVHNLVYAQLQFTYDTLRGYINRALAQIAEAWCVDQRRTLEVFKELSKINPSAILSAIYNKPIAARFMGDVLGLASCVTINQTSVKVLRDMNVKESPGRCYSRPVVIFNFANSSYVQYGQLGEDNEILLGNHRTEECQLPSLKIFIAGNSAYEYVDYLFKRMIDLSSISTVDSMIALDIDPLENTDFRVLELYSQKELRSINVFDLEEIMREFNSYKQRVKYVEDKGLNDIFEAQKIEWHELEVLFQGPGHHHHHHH

[3] = target: T3, N208Q mutant of gB glycoprotein (gB_Towne protein) (human cytomegalovirus, strain Towne, UniProt F5HB53 25-700); test: as above
T3 construct: also called gB glycoprotein N208Q mutant
T3 chain: T2 chain with N184Q, Q385N

[4] = target: T4, HCMV gB glycoprotein of standard strain Towne (gB_Towne strain) (human cytomegalovirus, strain Towne, UniProt F5HB53 25-700); test: SPR (Biacore), antibody captured on anti-human IgG (Fc) CM5 chip, gB glycoprotein as analyte
T4 construct: also called antigen protein gB0049

Measured: binding result

B1: TRN1019 (antibody, V domains shown)
VH: QVQLVQSGAEVKKPGESLKISCKGSGYTFTNYWIGWVRQMPGAGLEWMAIIFPRDSYSAYSPSFQGRVTISVDKSISTAYLHWSSLEASDTAVYYCAIYNDLRSGNSWGQGTPLIVSS
VL: DIQMTQSPSSLSASVGDRVTITCRASQSITKYLNWYQQKPGRAPKLLIHTTSTLQSGVPSRFSGSGSGTDFTLTISSLQLEDFGTYYCQQSFSTLWTFGQGTKLDIKR
notes: Fully human antibody; kappa light chain
binds: all assays above
